Measured values published in publication PMC11173989.

Target: tKeima (tetrameric large Stokes shift red fluorescent protein Keima) (Montipora sp.)
Assay: SEC; gel filtration on Sephacryl S-100, 10 mM Tris-HCl (pH 8.0), 200 mM NaCl

- stoichiometry N: 4
Substance: tKeima (tetrameric large Stokes shift red fluorescent protein Keima)
